These results are taken from the RNAGym collection of RNA variant scans (doi:10.7554/elife.80360).

B1: Hairpin Ribozyme (parent)
chain: GUCCUCUUUCACGUGCGCGUGAAAGAGAGAAGUGAACCAGAGAAACACACGUUGUGGUAUAUUACCUGGUA

Variants of B1 are the subject of the data set. Description: self-cleavage, relative activity (ratio to wild type); higher = more cleavage; co-transcriptional.
On to A11C G25U, for which the self-cleavage worked out at 0.548.
As for C12G A47G, the figure is 0.076; as for C12G A47U, 0.183.
The result for A11G U53A reads 0.945.
The result for A11G U53G reads 0.755; that for C12A A61U, 0.169.
Take C12A A61C: the self-cleavage amounted to 0.239.
As for A11C G57C, the figure is 0.145.
The result for A11C C18A reads 0.768; that for C12A A71C, 1.26.
In the case of C12A A71U, the self-cleavage was found to be 0.701.
Consider A11G G68U, for which the self-cleavage turned out to be 0.143.
The result for A11G G68C reads 0.221; that for A11C A39G, 0.275.
As for A11C A39C, the figure is 0.514.
The result for A11G C16G reads 0.592.
For the variant A11U A61C, the self-cleavage came to 0.137.
As for A11C G40C, the figure is 0.182.
As for A11C G40U, the figure is 0.181.
The result for A11C A64C reads 0.0846.
With A11C A64G, the self-cleavage came to 0.462.
As for A11U G27U, the figure is 0.394; as for C10U U63A, 0.25.
As for C10U U63G, the figure is 0.263; as for C10U G40A, 0.308; as for A11C A28U, 0.603.
With C10U G19A, the self-cleavage worked out at 0.588.
As for C10U G19C, the figure is 0.702.
The result for A11C C16U reads 0.811; that for A11U U67A, 0.117.
As to A11U U67C, the self-cleavage was found to be 0.223.
The result for A11G A44C reads 0.203; that for A11G A44G, 0.0822; that for A11U G69U, 0.26.
The result for A11U G69C reads 0.229; that for A11C G15C, 0.752.
As for A11C G15A, the figure is 0.819.
For the variant A11G G19A, the self-cleavage was determined as 0.88.
The result for A11U G54A reads 0.538; that for A11U G29A, 0.137; that for C10U A24U, 0.778.
For the variant C10U A24G, the self-cleavage worked out at 0.885.
As for A11G C46U, the figure is 0.203.
As for A11U C37U, the figure is 0.524.
The result for A11U C37G reads 0.369; that for A11C U53A, 0.919; that for A11U G25A, 0.402.
For the variant A11U G25U, the self-cleavage is 0.568.
As to C12G A36G, the self-cleavage came out at 0.843.
As for C12G A36C, the figure is 0.533; as for C10U G29U, 0.134.
As for C10U G29C, the figure is 0.159.
The result for C10U A64C reads 0.213; that for A11U G15U, 0.895; that for C10U C46U, 0.152.
Turning to A11U A35U, the self-cleavage stood at 0.717.
The result for A11C G56U reads 0.0715; that for A11U A43G, 0.135; that for A11U A43C, 0.139.
As for A11C C46U, the figure is 0.255; as for A11C C46G, 0.204; as for C12A A45U, 0.132.
The result for C12A A45G reads 0.177; that for C10U A39U, 0.334.
Turning to A11C A41C, the self-cleavage amounted to 1.25.
With A11C A41U, the self-cleavage was 1.29.
The result for A11G C65U reads 0.227; that for A11G C65A, 0.759; that for A11C A36U, 0.491.
Consider A11C A36G, for which the self-cleavage was determined as 1.07.
In the case of A11C C50U, the self-cleavage came to 0.247.
In the case of A11G G34A, the self-cleavage worked out at 1.18.
As for A11G A59U, the figure is 0.199; as for C12A A30C, 0.159; as for A11G G69A, 0.405.
The result for A11C A26U reads 0.482; that for A11C A26C, 0.41.
As for A11G, the figure is 0.883.
For A11U, the self-cleavage came out at 0.831.
As for A11C, the figure is 0.849.
The result for C12A C50A reads 0.231.
Consider C12A C50G, for which the self-cleavage is 0.389.
As for C12A G56A, the figure is 0.182; as for C12A A36U, 0.435; as for C12A A59G, 0.226.
The result for A11G U20A reads 0.637; that for A11G U60A, 0.732; that for A11G U60C, 1.
For the variant A11U A26C, the self-cleavage was determined as 0.305.
The result for A11G U70G reads 0.846.
On to A11U C38A, for which the self-cleavage worked out at 0.2.
The result for A11C A43U reads 0.163.
Consider A11C G13A, for which the self-cleavage came to 0.661.
As for C10U A28U, the figure is 0.357; as for C10U U20A, 0.774.
As for C12A C65G, the figure is 0.282.
As for A11U C18A, the figure is 0.826.
For the variant C12A A23U, the self-cleavage worked out at 0.671.
Regarding C12A A23G, the self-cleavage was 0.677.
The result for C12A G34U reads 1.31.
As for A11G U62C, the figure is 0.146; as for A11G U62G, 0.332.
On to A11G U55A, for which the self-cleavage was determined as 0.191.
The result for C12A G40U reads 0.186.
C12A G40C: the self-cleavage was determined as 0.15.
In the case of A11G U14G, the self-cleavage was 0.846.
Turning to A11G U58G, the self-cleavage amounted to 0.802.
As for A11U U62G, the figure is 0.0971; as for A11C U60C, 1.27; as for A11U A36C, 0.619.
The result for A11U A36U reads 0.533; that for C10U A31U, 0.103; that for C10U A31G, 0.812.
As for C12A G13A, the figure is 0.635; as for C12A G13C, 0.927; as for A11U C12U, 0.694.
For the variant A11U C12A, the self-cleavage is 0.763.
The result for A11G A41C reads 1.06.
As for A11G A36G, the figure is 0.972.
As for A11U A28C, the figure is 0.53; as for C12G A26U, 0.696; as for C12G A26C, 0.555.
With A11U G57A, the self-cleavage turned out to be 0.15.
The result for A11U G57U reads 0.337; that for C12G A64G, 0.466; that for A11U A45C, 0.241.
The result for A11U A45G reads 0; that for C12G A41C, 1.21; that for C12A U55G, 0.406.
As for C12A A26U, the figure is 0.522.
With C12A A26G, the self-cleavage was 0.766.
The result for A11G U63C reads 0.204; that for A11G U63G, 0.296.
In the case of C10U U62C, the self-cleavage is 0.281.
With C12G A45G, the self-cleavage is 0.0996.
As for C10U A49G, the figure is 0.422; as for C10U A49C, 0.143.
The result for A11G U33C reads 0.0978.
As for A11C A22G, the figure is 0.966.
Turning to A11U G32U, the self-cleavage worked out at 0.0846.
Take C10U C66G: the self-cleavage amounted to 0.19.
The result for C10U C66U reads 0.43; that for A11C U62G, 0.199; that for A11U G19U, 0.815.
As for A11U G17A, the figure is 0.751; as for A11U G17U, 0.562.
As for C10U U33A, the figure is 0.169; as for C10U G27A, 0.403.
For A11C A49U, the self-cleavage came to 0.197.
The result for A11C A49G reads 0.629.
For the variant A11C U63A, the self-cleavage came out at 0.201.
As to A11U U14A, the self-cleavage amounted to 0.796.
In the case of A11C G42C, the self-cleavage amounted to 0.441.
As for A11C U14C, the figure is 0.68; as for C10U C12U, 0.652; as for A11U A71C, 1.17.
As for A11G A39C, the figure is 0.45.
As for C12A A49C, the figure is 0.0858.
In the case of A11G C18U, the self-cleavage came to 0.939.
The result for A11G C18A reads 0.795; that for C10U C65U, 0.204.
As for C10U C65A, the figure is 0.642; as for C12A G32U, 0.114; as for C12A G32A, 0.178.
As for C12A C37U, the figure is 0.578; as for C10U G42C, 0.266; as for C10U G42U, 0.269.
